For the assay, the target named is SARS CoV-1 RBD (SARS-CoV-1). The assay is described as follows: ELISA. (In general: ELISA stands for enzyme-linked immunosorbent assay.)

REGN10933 (Casirivimab) (antibody) returned an EC50 of 14 nM.

B1: REGN-10987 (Imdevimab) (antibody, V domains shown)
VH: QVQLVESGGGVVQPGRSLRLSCAASGFTFSNYAMYWVRQAPGKGLEWVAVISYDGSNKYYADSVKGRFTISRDNSKNTLYLQMNSLRTEDTAVYYCASGSDYGDYLLVYWGQGTLVTVSS
VL: QSALTQPASVSGSPGQSITISCTGTSSDVGGYNYVSWYQQHPGKAPKLMIYDVSKRPSGVSNRFSGSKSGNTASLTISGLQSEDEADYYCNSLTSISTWVFGGGTKLTVL
For the molecule B1, the EC50 is above 100 nM.

For orientation: EC50 means the concentration giving half of the maximal effect. Read a low EC50 as higher potency in that assay.

The values are drawn from paper PMC8920075.
